Measurements as given in patent US20220259318A1 (Hoffmann-La Roche, published 2022).
Values joined by “and” are separate entries in the source; they are usually repeats but may differ in a detail not shown here. Equal entries are not always repeated.

Key:
[1] = target: T1, human GPRC5D (human, UniProt Q9NZD1 1-345); experiment: cell-based or functional assay
[2] = target: T1, human GPRC5D; experiment: cell ELISA, CHO hu GPRC5D (EC/IC50 rel)
Experimental: Stable transfected CHO clones expressing either human GPRCSD or cynomolgus GPRCSD or murine GPRCSD or human GPRCSA were used to analyze the binding of potential lead candidate antibodies as IgGs. In detail, 10⁴ cells (viability≥98%) were seeded into 384 well-microtiter plates (BD Poly D-Lysin, #356662, volume: 25 μl/well) using fresh culture medium. After overnight incubation at 37° C., 25 μl/well dilutions of antibodies were added (15×1:3 dilutions in 1×PBS, assay conc. starts at 30 μg/ml) to the cells for 2 hours at 4° C. After one washing step using 90 μl/well PBST (10×PBS, Roche, #11666789001+0.1% Tween 20), cells were subsequently fixed by the addition of 50 μl/well 0.05% glutaraldehyde (Sigma Cat. No: G5882 in 1×PBS) for 10 min at room temperature (RT). After three additional washing steps using 90 μl/well PBST, secondary antibodies were added for detection: for human antibodies goat anti-human Ig a chain antibody HRP conjugate (Millipore #AP502P) diluted 1:2000 in blocking buffer (1×PBS (Roche #11666789001)+2% BSA (Bovine Serum Albumin Fraction V, fatty acid free, Roche, #10735086001)+0.05% Tween 20) was used (25 μl/well). […] After incubation for 1 h at RT and three additional washing steps using 90 μl/well PBST, 25 μl/well TMB substrate was added (Roche order no. 11835033001) for 10 min and color development to final ODs was determined by measurement at 370 nm/492 nm.
For the characterization of the humanization variants of the VH and VL domains of the GPRC5D binders the ELISA protocol as described above was used (see Example 7). The data are summarized in the table 10 for the humanization variants of 5E11 and in table 11 for the humanization variants of 5F11.

T1 sequence (Q9NZD1 whole entry): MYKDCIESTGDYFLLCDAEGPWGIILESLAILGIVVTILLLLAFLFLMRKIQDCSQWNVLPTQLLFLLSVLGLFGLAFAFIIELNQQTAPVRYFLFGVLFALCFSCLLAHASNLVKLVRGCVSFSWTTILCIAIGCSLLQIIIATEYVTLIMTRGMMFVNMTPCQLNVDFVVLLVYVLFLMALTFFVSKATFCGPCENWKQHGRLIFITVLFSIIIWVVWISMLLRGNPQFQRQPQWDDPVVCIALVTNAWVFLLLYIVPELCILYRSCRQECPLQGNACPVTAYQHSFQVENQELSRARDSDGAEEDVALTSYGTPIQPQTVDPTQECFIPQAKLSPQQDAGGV

Row | Binder | CAR-J2 EC50 [ng/mL] (PGLALA-CAR-J activation, L363 target cells) [1] | EC50 [2]
1 | P1AE5739 (antibody, V domains shown, Humanized 5F11 IgG; PGLALA Fc implied by the CAR-J assay; also called 5F11_VH1b + 5F11_VL1a) VH: EVQLVESGGGVVQPGRSLRLSCAASGFSFSNYGMAWVRQAPGKGLEWVASISTGGGNTYYRDSVKGRFTISRDNAKNTLYLQMNSLRAEDTAVYYCTRHDRGGLYWGQGTMVTVSS VL: DIVMTQSPLSLPVTPGEPASISCRSSKSLLHSNGITYVYWYLQKPGQSPQVLIYRMSNLASGVPDRFSGSGSGTDFTLKISRVEAEDVGVYHCGQLLENPYTFGQGTKLEIK | 23.5 | 0.004 µg/mL and 0.03 nM
2 | P1AE5742 (antibody, V domains shown, Humanized 5F11 IgG; PGLALA Fc implied by the CAR-J assay; also called 5F11_VH1b + 5F11_VL2b) VH: EVQLVESGGGVVQPGRSLRLSCAASGFSFSNYGMAWVRQAPGKGLEWVASISTGGGNTYYRDSVKGRFTISRDNAKNTLYLQMNSLRAEDTAVYYCTRHDRGGLYWGQGTMVTVSS VL: DIVMTQSPDSLAVSLGERATINCKSSKSLLHSNGITYVYWYQQKPGQPPKLLIYRMSNLASGVPDRFSGSGSGTDFTLTISSLQAEDVAVYHCGQLLENPYTFGQGTKLEIK | 61.9 | 0.0061 µg/mL and 0.04 nM
3 | P1AE5746 (antibody, V domains shown, Humanized 5F11 IgG; PGLALA Fc implied by the CAR-J assay; also called 5F11_VH1c + 5F11_VL2a) VH: QVQLVESGGGVVQPGRSLRLSCAASGFSFSNYGMAWVRQAPGKGLEWVASISTGGGNTYYADSVKGRFTISRDNSKNTLYLQMNSLRAEDTAVYYCTRHDRGGLYWGQGTMVTVSS VL: DIVMTQSPLSLPVTPGEPASISCRSSKSLLHSNGITYVYWYLQKPGQSPQLLIYRMSNRASGVPDRFSGSGSGTDFTLKISRVEAEDVGVYHCGQLLENPYTFGQGTKLEIK | 514 | 0.0107 µg/mL and 0.07 nM
4 | P1AE5750 (antibody, V domains shown, Humanized 5F11 IgG; PGLALA Fc implied by the CAR-J assay; also called 5F11_VH1d + 5F11_VL1a) VH: EVQLVESGGGVVQPGRSLRLSCAASGFSFSNYGMAWVRQAPGKGLEWVASISTGGGNTYYADSVKGRFTISRDNAKNTLYLQMNSLRAEDTAVYYCTRHDRGGLYWGQGTMVTVSS VL: DIVMTQSPLSLPVTPGEPASISCRSSKSLLHSNGITYVYWYLQKPGQSPQVLIYRMSNLASGVPDRFSGSGSGTDFTLKISRVEAEDVGVYHCGQLLENPYTFGQGTKLEIK | 20.6 | 0.0094 µg/mL and 0.06 nM
5 | P1AE5751 (antibody, V domains shown, Humanized 5F11 IgG; PGLALA Fc implied by the CAR-J assay; also called 5F11_VH1d + 5F11_VL1b) VH: EVQLVESGGGVVQPGRSLRLSCAASGFSFSNYGMAWVRQAPGKGLEWVASISTGGGNTYYADSVKGRFTISRDNAKNTLYLQMNSLRAEDTAVYYCTRHDRGGLYWGQGTMVTVSS VL: DIVMTQSPLSLPVTPGEPASISCRSSKSLLHSNGITYVYWYLQKPGKSPQVLIYRMSNLASGVPDRFSGSGSGTDFTLKISRVEAEDVGVYHCGQLLENPYTFGQGTKLEIK | 6.44 | 0.0124 µg/mL and 0.08 nM
6 | P1AE5756 (antibody, V domains shown, Humanized 5F11 IgG; PGLALA Fc implied by the CAR-J assay; also called 5F11_VH2b + 5F11_VL1b) VH: EVQLVESGGGLVQPGGSLRLSCAASGFSFSNYGMAWVRQAPGKGLEWVASISTGGGNTYYRDSVKGRFTISRDNAKNTLYLQMNSLRAEDTAVYYCTRHDRGGLYWGQGTMVTVSS VL: DIVMTQSPLSLPVTPGEPASISCRSSKSLLHSNGITYVYWYLQKPGKSPQVLIYRMSNLASGVPDRFSGSGSGTDFTLKISRVEAEDVGVYHCGQLLENPYTFGQGTKLEIK | 170 | 0.0078 µg/mL and 0.05 nM
7 | P1AE5734 (antibody, V domains shown, Humanized 5F11 IgG; PGLALA Fc implied by the CAR-J assay; also called 5F11_VH1a + 5F11_VL1a) VH: QVQLVESGGGVVQPGRSLRLSCAASGFSFSNYGMAWVRQAPGKGLEWVASISTGGGNTYYRDSVKGRFTISRDNSKNTLYLQMNSLRAEDTAVYYCTRHDRGGLYWGQGTMVTVSS VL: DIVMTQSPLSLPVTPGEPASISCRSSKSLLHSNGITYVYWYLQKPGQSPQVLIYRMSNLASGVPDRFSGSGSGTDFTLKISRVEAEDVGVYHCGQLLENPYTFGQGTKLEIK | 41.5 | 0.0055 µg/mL and 0.04 nM
8 | P1AE5757 (antibody, V domains shown, Humanized 5F11 IgG; PGLALA Fc implied by the CAR-J assay; also called 5F11_VH2b + 5F11_VL2a) VH: EVQLVESGGGLVQPGGSLRLSCAASGFSFSNYGMAWVRQAPGKGLEWVASISTGGGNTYYRDSVKGRFTISRDNAKNTLYLQMNSLRAEDTAVYYCTRHDRGGLYWGQGTMVTVSS VL: DIVMTQSPLSLPVTPGEPASISCRSSKSLLHSNGITYVYWYLQKPGQSPQLLIYRMSNRASGVPDRFSGSGSGTDFTLKISRVEAEDVGVYHCGQLLENPYTFGQGTKLEIK | 145 | 0.0029 µg/mL and 0.02 nM
9 | P1AE5740 (antibody, V domains shown, Humanized 5F11 IgG; PGLALA Fc implied by the CAR-J assay; also called 5F11_VH1b + 5F11_VL1b) VH: EVQLVESGGGVVQPGRSLRLSCAASGFSFSNYGMAWVRQAPGKGLEWVASISTGGGNTYYRDSVKGRFTISRDNAKNTLYLQMNSLRAEDTAVYYCTRHDRGGLYWGQGTMVTVSS VL: DIVMTQSPLSLPVTPGEPASISCRSSKSLLHSNGITYVYWYLQKPGKSPQVLIYRMSNLASGVPDRFSGSGSGTDFTLKISRVEAEDVGVYHCGQLLENPYTFGQGTKLEIK | 8.96 | 0.0063 µg/mL and 0.04 nM
10 | P1AE5735 (antibody, V domains shown, Humanized 5F11 IgG; PGLALA Fc implied by the CAR-J assay; also called 5F11_VH1a + 5F11_VL1b) VH: QVQLVESGGGVVQPGRSLRLSCAASGFSFSNYGMAWVRQAPGKGLEWVASISTGGGNTYYRDSVKGRFTISRDNSKNTLYLQMNSLRAEDTAVYYCTRHDRGGLYWGQGTMVTVSS VL: DIVMTQSPLSLPVTPGEPASISCRSSKSLLHSNGITYVYWYLQKPGKSPQVLIYRMSNLASGVPDRFSGSGSGTDFTLKISRVEAEDVGVYHCGQLLENPYTFGQGTKLEIK | 82.1 | 0.0066 µg/mL and 0.04 nM
11 | P1AE5762 (antibody, V domains shown, Humanized 5F11 IgG; PGLALA Fc implied by the CAR-J assay; also called 5F11_VH2d + 5F11_VL2a) VH: EVQLVESGGGLVQPGGSLRLSCAASGFSFSNYGMAWVRQAPGKGLEWVASISTGGGNTYYADSVKGRFTISRDNAKNTLYLQMNSLRAEDTAVYYCTRHDRGGLYWGQGTMVTVSS VL: DIVMTQSPLSLPVTPGEPASISCRSSKSLLHSNGITYVYWYLQKPGQSPQLLIYRMSNRASGVPDRFSGSGSGTDFTLKISRVEAEDVGVYHCGQLLENPYTFGQGTKLEIK | 84.2 | 0.0046 µg/mL and 0.03 nM
12 | P1AE5736 (antibody, V domains shown, Humanized 5F11 IgG; PGLALA Fc implied by the CAR-J assay; also called 5F11_VH1a + 5F11_VL2a) VH: QVQLVESGGGVVQPGRSLRLSCAASGFSFSNYGMAWVRQAPGKGLEWVASISTGGGNTYYRDSVKGRFTISRDNSKNTLYLQMNSLRAEDTAVYYCTRHDRGGLYWGQGTMVTVSS VL: DIVMTQSPLSLPVTPGEPASISCRSSKSLLHSNGITYVYWYLQKPGQSPQLLIYRMSNRASGVPDRFSGSGSGTDFTLKISRVEAEDVGVYHCGQLLENPYTFGQGTKLEIK | 1.38 | 0.0037 µg/mL and 0.02 nM
13 | P1AE5755 (antibody, V domains shown, Humanized 5F11 IgG; PGLALA Fc implied by the CAR-J assay; also called 5F11_VH2b + 5F11_VL1a) VH: EVQLVESGGGLVQPGGSLRLSCAASGFSFSNYGMAWVRQAPGKGLEWVASISTGGGNTYYRDSVKGRFTISRDNAKNTLYLQMNSLRAEDTAVYYCTRHDRGGLYWGQGTMVTVSS VL: DIVMTQSPLSLPVTPGEPASISCRSSKSLLHSNGITYVYWYLQKPGQSPQVLIYRMSNLASGVPDRFSGSGSGTDFTLKISRVEAEDVGVYHCGQLLENPYTFGQGTKLEIK | 152 | 0.0078 µg/mL and 0.05 nM
14 | P1AE5760 (antibody, V domains shown, Humanized 5F11 IgG; PGLALA Fc implied by the CAR-J assay; also called 5F11_VH2d + 5F11_VL1a) VH: EVQLVESGGGLVQPGGSLRLSCAASGFSFSNYGMAWVRQAPGKGLEWVASISTGGGNTYYADSVKGRFTISRDNAKNTLYLQMNSLRAEDTAVYYCTRHDRGGLYWGQGTMVTVSS VL: DIVMTQSPLSLPVTPGEPASISCRSSKSLLHSNGITYVYWYLQKPGQSPQVLIYRMSNLASGVPDRFSGSGSGTDFTLKISRVEAEDVGVYHCGQLLENPYTFGQGTKLEIK | 190 | 0.004 µg/mL and 0.03 nM
15 | P1AE5752 (antibody, V domains shown, Humanized 5F11 IgG; PGLALA Fc implied by the CAR-J assay; also called 5F11_VH1d + 5F11_VL2a) VH: EVQLVESGGGVVQPGRSLRLSCAASGFSFSNYGMAWVRQAPGKGLEWVASISTGGGNTYYADSVKGRFTISRDNAKNTLYLQMNSLRAEDTAVYYCTRHDRGGLYWGQGTMVTVSS VL: DIVMTQSPLSLPVTPGEPASISCRSSKSLLHSNGITYVYWYLQKPGQSPQLLIYRMSNRASGVPDRFSGSGSGTDFTLKISRVEAEDVGVYHCGQLLENPYTFGQGTKLEIK | 509 | 0.0062 µg/mL and 0.04 nM
16 | P1AE5761 (antibody, V domains shown, Humanized 5F11 IgG; PGLALA Fc implied by the CAR-J assay; also called 5F11_VH2d + 5F11_VL1b) VH: EVQLVESGGGLVQPGGSLRLSCAASGFSFSNYGMAWVRQAPGKGLEWVASISTGGGNTYYADSVKGRFTISRDNAKNTLYLQMNSLRAEDTAVYYCTRHDRGGLYWGQGTMVTVSS VL: DIVMTQSPLSLPVTPGEPASISCRSSKSLLHSNGITYVYWYLQKPGKSPQVLIYRMSNLASGVPDRFSGSGSGTDFTLKISRVEAEDVGVYHCGQLLENPYTFGQGTKLEIK | 74.6 | 0.0037 µg/mL and 0.02 nM
